Laboratory results from patent US9308238B2, “Compositions and methods for modulating EMT and uses thereof” (Whitehead Institute for Biomedical Research, priority 2010, dated 2016).

Legend:
[1] = test system: RAS-transformed HMLE cells; test: Lung metastasis of RAS-transformed treated HMLE cells from mammary fat pads; format: in vivo; conditions: cells implanted into mammary fat pads of mice
Protocol: FIGS. 5A-5H. Concomitant stimulation of Wnt and TGF-beta pathways allows HMLE^24+ cells to enter into a mesenchymal and SC-like state. (FIG. 5A) RT-PCR: N-Cadherin, Zeb1 and Zeb2, L32 was loading control, n=3. Prior RNA isolation, HMLE^24+-shGFP or -shSFRP1 (stable knockdown of SFRP1, FIG. 12A) cells were treated for 3 days with daily doses of indicated factors: anti-DKK1 antibody (10 μg/ml), anti-E-Cadherin antibody (1 μg/ml), TGF-beta 1 (5 ng/ml), Wnt5a (250 ng/ml), (FIG. 5B) Brightfield microscopy: images of control, TGF-beta- and iEMT-cocktail treated HMLE^24+ cells after 14 days of treatment as indicated (see also FIG. 12D). (FIG. 5C) RT-PCR: Zeb1, Zeb2, E-Cadherin and N-Cadherin, L32 was loading control, n=3. After 14 day treatment, cells were expanded in absence of further stimulation for 4 passages. […] (FIG. 5G) Lung metastasis: cells expanded for 8 passages after cessation of treatment as described in (C) were transformed with RAS; 1.0×10^5 cells were injected into the mammary fat pads of mice; GFP-labeled metastases on the surface of the lungs were quantified; *control vs. all other groups, p<0.05, n=5 mice/group. […]
Animal studies. […] Lung surface metastases were counted using a fluorescent microscope within 3 hr of specimen isolation.

luminal MECs = test: Mammosphere assay, primary luminal cells after pre-treatment; format: cell-based, human; conditions: 5-day treatment
Description: (§1) FIGS. 7A-7G. Migratory and self-renewal properties in primary MECs: inhibition and induction. (FIG. 7A) Mammosphere Assay: microscopy images of mammospheres and quantification of mammosphere formation by purified basal, luminal and unsorted MEC populations. Primary spheres were allowed to form over a period of 7 days, dissociated and seeded for secondary sphere formation, n(mammosphere)/1000 cells, n=48, (FIG. 7B) Migration Assay: microscopy images of migrated cells in Boyden Chambers and quantification, n=6. (FIG. 7C) Mammosphere Assay: basal cells were seeded into assay after a 5 day pre-treatment with TGF-beta inhibitors A83-01 and […] (SB43, both inhibitors at 10 μM) as well as recombinant SFRP1 (1 μg/ml), n(mammospheres)/1000 cells, n=6. (FIG. 7D) Migration Assay: basal cells were seeded into migration assays treated after 5 day pre-treatment as described in (C), n=24. (FIG. 7E) Mammosphere Assay: luminal cells were seeded into the assay following a 5 day pre-treatment with TGF-beta 1 (5 ng/ml), Wnt5a (250 ng/ml), anti-E-Cadherin antibody (1 μg/ml) plus anti-DKK1 antibody (10 μg/ml), and a cocktail of all factors added together (iEMT-II), n(mammospheres)/1000 cells, n=24. (FIG. 7F) Migration Assay: luminal cells were seeded into Boyden Chambers following a 5 day pre-treatment as described in (E), n=6. […]

MSP cells = test: Mammosphere assay, MSP cells; format: cell-based, human
Protocol: FIGS. 3A-3E. Autocrine Signaling controls migration and mammosphere formation.
(§2) Mammosphere and tumorsphere assay. Assays were performed as previously described with modifications (Dontu et al., 2003): 1000 cells/well were seeded in 96-well ultra-low adhesion plates (Corning) in MEGM medium containing 1.3% methylcellulose (Stem Cell Technologies) supplemented with 20 ng/ml EGF, 10 ng/ml bFGF (both Sigma) and B27 (Gibco). Primary spheres were dissociated by trypsinization and replated for secondary sphere formation after a period of 5-7 days.

basal MECs = test: Mammosphere assay, primary basal cells after pre-treatment; format: cell-based, human; conditions: 5 day pre-treatment, assay without further treatment
Description: as §1

HTwist and MSP cells = test: Mammosphere assay, HTwist and MSP cells; format: cell-based, human
Protocol: FIGS. 10A-10E. […] (FIG. 10E) Mammosphere Assay: HTwist and MSP were treated daily during mammosphere formation (5 days) with BMP4 (0.5 μg/ml), SB431542 (10 μM) or a combination of both, n(mammospheres)/1000 cells, n=6.
as §2

[2] = added daily for 5 days (FIG. 3D)

With “TGF-beta 1: recombinant TGF-beta 1 protein, used at 5 ng/ml” the “lung metastatic foci of RAS-transformed treated cells” value [1] was “only weakly metastatic” and the “increase in mammosphere-forming cells / efficiency” value (luminal MECs) was 3 fold.

B1: SFRP1: Recombinant human SFRP1 protein (R&D Systems), secreted decoy receptor binding canonical and non-canonical Wnt ligands (protein, UniProt Q8N474 32-314, looked up)
Secreted frizzled-related …: SEYDYVSFQSDIGPYQSGRFYTKPPQCVDIPADLRLCHNVGYKKMVLPNLLEHETMAEVKQQASSWVPLLNKNCHAGTQVFLCSLFAPVCLDRPIYPCRWLCEAVRDSCEPVMQFFGFYWPEMLKCDKFPEGDVCIAMTPPNATEASKPQGTTVCPPCDNELKSEAIIEHLCASEFALRMKIKEVKKENGDKKIVPKKKKPLKLGPIKKKDLKKLVLYLKNGADCPCHQLDNLSHHFLIMGRKVKSQYLLTAIHKWDKKNKEFKNFMKKMKNHECPTFQSVFK
With B1 the “reduction of primary mammosphere number” value (MSP cells; [2]) was 40%, the “reduction of secondary sphere formation” value (MSP cells; treated during primary sphere formation only) was 80% and the “reduction of mammosphere formation” value (basal MECs) was 80-90%.

B2: BMP4: Recombinant BMP4 protein obtained from Stemgent (protein, UniProt P12644 293-408, looked up)
Bone morphogenetic protein 4: SPKHHSQRARKKNKNCRRHSLYVDFSDVGWNDWIVAPPGYQAFYCHGDCPFPLADHLNSTNHAIVQTLVNSVNSSIPKACCVPTELSAISMLYLDEYDKVVLKNYQEMVVEGCGCR
In the case of B2, the “reduction of primary mammosphere formation” value (HTwist and MSP cells; [2]) is reported as 60% and the “reduction of secondary sphere formation” value (HTwist and MSP cells; both cell lines, treated during primary sphere formation only) is reported as 90%.
